From patent US8153424B2, “Method of in vitro differentiation of neural stem cells, motor neurons and dopamine neurons from primate embryonic stem cells” (Wisconsin Alumni Research Foundation, priority 2001, dated 2012)

Tested on: hESC-derived neuroectodermal cells
Test: Midbrain regionalization and DA neuron differentiation, immunocytochemistry and cell counting
Format: cell-based, human
Conditions: FGF8 100 ng/ml applied at day nine for six days, expanded in FGF8 four days, then SHH six days
Procedure: Differentiation and enrichment of neuroectodermal cells. hESC colonies were detached from MEF layer by the treatment of the culture with 0.2 mg/ml of dispase (Roche Diagnostics) and grown as floating cell aggregates (embryoid body) for four days with a daily change of ESC medium. They were then grown in an adherent substrate in a neural medium consisting of DMEM/F12 (2:1), supplemented with N2 (Gibco), 0.1 mM non-essential amino acids, 2 μg/ml heparin with a medium change every other day. The ESC aggregates attached and formed individual colonies at around day six. […] The neural rosettes were isolated through differential enzymatic response (Zhang et al., supra, 2001). Growth factors were added during the course of differentiation to influence regionalization (see results).
DA neuron differentiation. The enriched neuroectodermal cells were dissociated by 0.025% trypsin and 0.27 mM EDTA in PBS at 37° C. for 10-15 minutes and plated onto 12-mm coverslips (pre-coated with 100 μg/ml polyornithine and 10 μg/ml laminin) at a density of 40,000-50,000 cells/coverslip. […]
Immunocytochemistry and cell quantification. […] Staining was visualized with a Nikon fluorescence microscope. […] The cells in ten visual fields were randomly selected and counted from each coverslip.

B1: FGF8: fibroblast growth factor 8 (protein, UniProt P55075 23-233, looked up)
Fibroblast growth factor 8: QEGPGRGPALGRELASLFRAGREPQGVSQQHVREQSLVTDQLSRRLIRTYQLYSRTSGKHVQVLANKRINAMAEDGDPFAKLIVETDTFGSRVRVRGAETGLYICMNKKGKLIAKSNGKGKDCVFTEIVLENNYTALQNAKYEGWYMAFTRKGRPRKGSKTRQHQREVHFMKRLPRGHHTTEQSLRFEFLNYPPFTRSLRGSQRTWAPEPR
B1 was tested, and the “En-1 expression in nestin-expressing neuroectodermal cells” value was “En-1 expression was observed”.
